This passage reports response results from PMC11063343.

The assay has as its target SARS-CoV-2 S1 spike domain. Description: SPR. The following applies: 2.5 µM SARS-CoV-2-S1; parent: est. 450; read off a plot.

As to “cellugyrin N-Term peptide Y6A; K10A; F15A”, the response was determined as 45 RU.
